Target: cytoplasmic region of YhcB from Haemophilus ducreyi (residues 31 to 128) with I51M and L72M mutations (Haemophilus ducreyi) (UniProt Q7VLF5)
Test: crystal structure; microbatch under paraffin oil, 2.0 M ammonium sulfate; SAD phasing of selenomethionine-labeled protein; 2.8 Å

“cytoplasmic region of YhcB from Haemophilus ducreyi (residues 31 to 128) with I51M and L72M mutations (from UniProt Q7VLF5 31-128) (domain or fragment)” was tested, and the stoichiometry N was 4.

From paper PMC8163987
